Assay results reported in publication PMC12382473, “Retinoid X receptor γ interacts with peroxisome proliferator-activated receptor-γ to promote browning during adipose tissue differentiation” (Adipocyte, 2025).

Biological target: T1, Flag-PPARγ, transfected in HEK293 cells (UniProt P37231 1-505)
T1 sequence (looked up): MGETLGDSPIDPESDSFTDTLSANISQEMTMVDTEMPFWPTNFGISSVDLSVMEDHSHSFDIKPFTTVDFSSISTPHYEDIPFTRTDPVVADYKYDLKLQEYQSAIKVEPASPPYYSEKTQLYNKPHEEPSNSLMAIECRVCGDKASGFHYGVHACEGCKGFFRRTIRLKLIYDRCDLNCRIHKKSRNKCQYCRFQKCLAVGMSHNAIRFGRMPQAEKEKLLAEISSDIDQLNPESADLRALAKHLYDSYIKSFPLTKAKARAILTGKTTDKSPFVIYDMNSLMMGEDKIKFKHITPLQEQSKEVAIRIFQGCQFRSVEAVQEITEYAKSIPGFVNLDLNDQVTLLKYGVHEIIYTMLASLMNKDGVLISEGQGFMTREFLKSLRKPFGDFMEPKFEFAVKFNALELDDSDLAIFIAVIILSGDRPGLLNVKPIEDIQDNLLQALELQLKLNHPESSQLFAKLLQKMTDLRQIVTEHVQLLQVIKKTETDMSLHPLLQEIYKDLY
Test: cell-based or functional assay

luciferase activity of a PPRE reporter in HEK293 cells, RXRγ co-expressed with PPARγ (PPARγ alone 1.6-fold; RXRγ alone no increase): 2.1 fold
luciferase activity of a UCP1 promoter reporter in HEK293 cells, RXRγ co-expressed with PPARγ (PPARγ alone 1.5-fold; RXRγ alone no increase): 3.4 fold
B1: Myc-RXRγ (retinoid X receptor γ), transfected in HEK293 cells (natural protein, UniProt P48443 1-463, looked up)
chain: MYGNYSHFMKFPAGYGGSPGHTGSTSMSPSAALSTGKPMDSHPSYTDTPVSAPRTLSAVGTPLNALGSPYRVITSAMGPPSGALAAPPGINLVAPPSSQLNVVNSVSSSEDIKPLPGLPGIGNMNYPSTSPGSLVKHICAICGDRSSGKHYGVYSCEGCKGFFKRTIRKDLIYTCRDNKDCLIDKRQRNRCQYCRYQKCLVMGMKREAVQEERQRSRERAESEAECATSGHEDMPVERILEAELAVEPKTESYGDMNMENSTNDPVTNICHAADKQLFTLVEWAKRIPHFSDLTLEDQVILLRAGWNELLIASFSHRSVSVQDGILLATGLHVHRSSAHSAGVGSIFDRVLTELVSKMKDMQMDKSELGCLRAIVLFNPDAKGLSNPSEVETLREKVYATLEAYTKQKYPEQPGRFAKLLLRLPALRSIGLKCLEHLFFFKLIGDTPIDTFLMEMLETPLQIT
